Measurements taken from paper doi:10.1101/2023.10.13.562012.

What was measured:
Assay in all cases: cryo-EM structure
[1] = biological target: LHC-II complex (spinach (endogenous in leaves))
[2] = biological target: Rubisco (spinach (endogenous in leaves))
[3] = biological target: tonoplast intrinsic protein TIP1;1 (spinach (endogenous in leaves))
[4] = biological target: tonoplast intrinsic protein TIP2;1 (spinach (endogenous in leaves))
[5] = biological target: chloroplast carbonic anhydrase (CA) (spinach (endogenous in leaves))

For LHC-II complex (natural protein), which stoichiometry N [1] is on record?
The stoichiometry N was 3.

For Rubisco (complex), which stoichiometry N [2] is on record?
Its stoichiometry N is 8.

What does the source list for “tonoplast intrinsic protein TIP1;1 (natural protein)”?
stoichiometry N [3]: 4; stoichiometry N [4]: 3

Which stoichiometry N [5] does the source give for “chloroplast carbonic anhydrase (CA) (enzyme)” here?
Its stoichiometry N is 8.
